Assay [1] addresses T1, Recombinant Human TNF-α/TNFSF1A (human, UniProt P01375 77-233). Put plainly: cell-based or functional assay.
Assay [2] addresses T2, Recombinant Human SOST (human, UniProt Q9BQB4 24-213).
T2 construct: Biacore reagent from R&D Systems; the Wnt-1/luciferase assay used Human Sclerostin (Abbott PR-1261069); also called Sclerostin; Human Sclerostin
T2 sequence (looked up): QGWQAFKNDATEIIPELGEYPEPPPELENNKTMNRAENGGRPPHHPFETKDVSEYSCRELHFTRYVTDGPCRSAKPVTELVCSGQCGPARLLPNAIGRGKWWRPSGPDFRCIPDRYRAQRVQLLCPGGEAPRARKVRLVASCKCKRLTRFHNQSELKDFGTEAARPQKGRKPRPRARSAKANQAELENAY
The assay can be described thus: Biacore SPR. The protocol: (§1) The BIACORE assay (Biacore, Inc, Piscataway, N.J.) determines the affinity of antibodies or DVD-Ig with kinetic measurements of on-rate and off-rate constants. Binding of antibodies or DVD-Ig to a target antigen (for example, a purified recombinant target antigen) is determined by surface plasmon resonance-based measurements with a Biacore® 1000 or 3000 instrument (Biacore® AB, Uppsala, Sweden) using running HBS-EP (10 mM HEPES [pH 7.4], 150 mM NaCl, 3 mM EDTA, and 0.005% surfactant P20) at 25° C. All chemicals are obtained from Biacore® AB (Uppsala, Sweden) or otherwise from a different source as described in the text. For example, approximately 5000 RU of goat anti-mouse IgG, (Fcγ), fragment specific polyclonal antibody (Pierce Biotechnology Inc, Rockford, Ill.) diluted in 10 mM sodium acetate (pH 4.5) is directly immobilized across a CMS research grade biosensor chip using a standard amine coupling kit according to manufacturer's instructions and procedures at 25 μg/ml. Unreacted moieties on the biosensor surface are blocked with ethanolamine. Modified carboxymethyl dextran surface in flowcell 2 and 4 is used as a reaction surface. Unmodified carboxymethyl dextran without goat anti-mouse IgG in flow cell 1 and 3 is used as the reference surface. For kinetic analysis, rate equations derived from the 1:1 Langmuir binding model are fitted simultaneously to association and dissociation phases of all eight injections (using global fit analysis) with the use of Biaevaluation 4.0.1 software. Purified antibodies or DVD-Ig are diluted in HEPES-buffered saline for capture across goat anti-mouse IgG specific reaction surfaces. Antibodies or DVD-Ig to be captured as a ligand (25 μg/ml) are injected over reaction matrices at a flow rate of 5 μl/min. The association and dissociation rate constants, kₒₙ (M⁻¹s⁻) and koff(s⁻¹) are determined under a continuous flow rate of 25 μl/min. Rate constants are derived by making kinetic binding measurements at different antigen concentrations ranging from 10-200 nM. The equilibrium dissociation constant (M) of the reaction between antibodies or DVD-Igs and the target antigen is then calculated from the kinetic rate constants by the following formula: KD=koff/kₒₙ. Binding is recorded as a function of time and kinetic rate constants are calculated.
On the technique in general: Surface plasmon resonance follows binding to a sensor surface in real time, without labels.

The target in assay [3] is T1, Recombinant Human TNF-α/TNFSF1A. Put plainly: Biacore SPR. The protocol: as §1

Consider 12 molecules from patent US20120087858A1 (AbbVie / Abbott, published 2012).

T1 sequence (P01375 77-233 limits assumed): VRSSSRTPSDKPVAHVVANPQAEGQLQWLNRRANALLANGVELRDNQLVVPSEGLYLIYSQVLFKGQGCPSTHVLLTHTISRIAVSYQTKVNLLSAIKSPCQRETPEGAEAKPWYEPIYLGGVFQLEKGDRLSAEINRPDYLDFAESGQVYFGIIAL

B1: DVD1474 (bispecific antibody, human IgG1, kappa)
heavy: not shown
light: DVLMTQTPLSLPVTPGEPASISCTSSQNIVHSNGNTYLEWYLQKPGQSPQLLIYKVSNRFSGVPDRFSGSGSGTDFTLKISRVEAEDVGVYYCFQVSHVPYTFGGGTKVEIKRTVAAPSVFIFPPDIQMTQSPSSLSASVGDRVTITCRASQGIRIDLGWYQQKPGKAPKRLIYAASTLQSGVPSRFSGSGSGTEFIFTISSLQPEDFASYYCLQHKSYPLTFGGGTKVEIKRTVAAPSVFIFPPSDEQLKSGTASVVCLLNNFYPREAKVQWKVDNALQSGNSQESVTEQDSKDSTYSLSSTLTLSKADYEKHKVYACEVTHQGLSSPVTKSFNRGEC
As to B1, the “TNFα Neutralization Assay EC50 (L929 cells)” value (“TNFα Neutralization Assay EC50” for short) in assay [1] amounted to 0.273 nM.

B2: AB022 (antibody, V domains shown)
VH: EVQLQQSGPELVTPGASVKISCKASGYTFTDHYMSWVKQSHGKSLEWIGDINPYSGETTYNQKFKGTATLTVDKSSSIAYMEIRGLTSEDSAVYYCARDDYDASPFAYWGQGTLVTVSA
VL: DVQMIQSPSSLSASLGDIVTMTCQASQGTSINLNWFQQKPGKAPKLLIYGSSNLEDGVPSRFSGSRYGTDFTLTISSLEDEDLATYFCLQHSYLPYTFGGGTKLEIKR
notes: Parent antibody; also called SOST parent antibody
For orientation: Kd means the free concentration of one partner at which half of the binding sites on the other are occupied at equilibrium, for simple one-to-one binding. The term koff denotes the first-order rate constant of dissociation. One may read the kon as the rate constant with which the complex forms. As for B2, in assay [2], the Kd was 0.0408 nM, the koff is 0.000396 s⁻¹ and the kon worked out at 9.68e+06 M⁻¹ s⁻¹.

B3: DVD1522 (bispecific antibody, human IgG1, kappa)
heavy: not shown
light: DVVMTQTPLSLPVSLGDQASISCTSGQSLVHINGNTYLHWYLQKPGQSPKLLIYKVSNLFSGVPDRFSGSGSGTDFTLKISRVEAEDLGVYFCSQSTHFPFTFGTGTKLEIKRTVAAPDIQMTQSPSSLSASVGDRVTITCRASQGIRIDLGWYQQKPGKAPKRLIYAASTLQSGVPSRFSGSGSGTEFIFTISSLQPEDFASYYCLQHKSYPLTFGGGTKVEIKRTVAAPSVFIFPPSDEQLKSGTASVVCLLNNFYPREAKVQWKVDNALQSGNSQESVTEQDSKDSTYSLSSTLTLSKADYEKHKVYACEVTHQGLSSPVTKSFNRGEC
In the case of B3, the “TNFα Neutralization Assay EC50” value in assay [1] is 4.18 nM.

B4: AB217 (antibody, V domains shown)
VH: QVQLVESGGGVVQPGRSLRLSCAASGFTFSSYDMHWVRQAPGKGLEWVAVIWSDGSIKYYADSVKGRFTISRDNSKNTLYLQMNSLRAEDTAVYYCAREVESAMGGFYYNGMDVWGQGTTVTVSS
VL: DIQMTQSPSSLSASVGDRVTITCRASQGIRIDLGWYQQKPGKAPKRLIYAASTLQSGVPSRFSGSGSGTEFIFTISSLQPEDFASYYCLQHKSYPLTFGGGTKVEIKR
notes: Parent antibody
In the case of B4, in assay [3], the Kd was 0.0272 nM, the koff was determined as 5.04e-05 s⁻¹ and the kon was 1.85e+06 M⁻¹ s⁻¹. Besides, in assay [1], the “TNFα Neutralization Assay EC50” value turned out to be 0.0762 nM.

B5: AB218 (antibody, V domains shown)
VH: EVQLVESGGGLIQPGGSLRLSCAASGFTVSRNYMSWVRQAPGKGLEWVSVIYSGDRTYYADSVKGRFTISRDNSKNTLYLQMNSLRAEDTAVYYCARGEGGFDYWGQGTLVTVSS
VL: EIVMTQSPATLSVSPGERATLSCRASQSVSSNLAWYQQKPGQAPRLLIHGASIRATGLPARFSGSGSGTEFTLTISSLQSEDFAVYYCQQYNYWWTFGQGTKVEIKR
notes: Parent antibody
On to B5, for which, in assay [3], the Kd came to 0.0288 nM, the koff was determined as 5.15e-05 s⁻¹ and the kon turned out to be 1.79e+06 M⁻¹ s⁻¹. The “TNFα Neutralization Assay EC50” value in assay [1] was found to be 0.045 nM.

B6: DVD1516 (bispecific antibody, human IgG1, kappa)
heavy: not shown
light: DVLMTQTPLSLPVTPGEPASISCTSSQNIVHSNGNTYLEWYLQKPGQSPQLLIYKVSNRFSGVPDRFSGSGSGTDFTLKISRVEAEDVGVYYCFQVSHVPYTFGGGTKVEIKRTVAAPDIQMTQSPSSLSASVGDRVTITCRASQGIRIDLGWYQQKPGKAPKRLIYAASTLQSGVPSRFSGSGSGTEFIFTISSLQPEDFASYYCLQHKSYPLTFGGGTKVEIKRTVAAPSVFIFPPSDEQLKSGTASVVCLLNNFYPREAKVQWKVDNALQSGNSQESVTEQDSKDSTYSLSSTLTLSKADYEKHKVYACEVTHQGLSSPVTKSFNRGEC
Turning to B6, in assay [1], the “TNFα Neutralization Assay EC50” value came to 8.71 nM.

B7: DVD1496 (bispecific antibody, human IgG1, kappa)
heavy: not shown
light: DVQMIQSPSSLSASLGDIVTMTCQASQGTSINLNWFQQKPGKAPKLLIYGSSNLEDGVPSRFSGSRYGTDFTLTISSLEDEDLATYFCLQHSYLPYTFGGGTKLEIKRTVAAPDIVMTQSHKFMSTTVGDRVSITCKASQAVSSAVAWYQQKPGQSPKLLIYWASTRHTGVPDRFTGSGSVTDFTLTIHNLQAEDLALYYCQQHYSTPFTFGSGTKLEIKRTVAAPSVFIFPPSDEQLKSGTASVVCLLNNFYPREAKVQWKVDNALQSGNSQESVTEQDSKDSTYSLSSTLTLSKADYEKHKVYACEVTHQGLSSPVTKSFNRGEC
Consider B7, for which the “TNFα Neutralization Assay EC50” value in assay [1] worked out at 0.085 nM.

B8: DVD1448 (bispecific antibody, human IgG1, kappa)
heavy: not shown
light: DVLMTQTPLSLPVTPGEPASISCTSSQNIVHSNGNTYLEWYLQKPGQSPQLLIYKVSNRFSGVPDRFSGSGSGTDFTLKISRVEAEDVGVYYCFQVSHVPYTFGGGTKVEIKRTVAAPSVFIFPPDIVMTQSHKFMSTTVGDRVSITCKASQAVSSAVAWYQQKPGQSPKLLIYWASTRHTGVPDRFTGSGSVTDFTLTIHNLQAEDLALYYCQQHYSTPFTFGSGTKLEIKRTVAAPSVFIFPPSDEQLKSGTASVVCLLNNFYPREAKVQWKVDNALQSGNSQESVTEQDSKDSTYSLSSTLTLSKADYEKHKVYACEVTHQGLSSPVTKSFNRGEC
Consider B8, for which the “TNFα Neutralization Assay EC50” value in assay [1] was 1.39 nM.

B9: DVD1476 (bispecific antibody, human IgG1, kappa)
heavy: not shown
light: DVQMIQSPSSLSASLGDIVTMTCQASQGTSINLNWFQQKPGKAPKLLIYGSSNLEDGVPSRFSGSRYGTDFTLTISSLEDEDLATYFCLQHSYLPYTFGGGTKLEIKRTVAAPSVFIFPPDIQMTQSPSSLSASVGDRVTITCRASQGIRIDLGWYQQKPGKAPKRLIYAASTLQSGVPSRFSGSGSGTEFIFTISSLQPEDFASYYCLQHKSYPLTFGGGTKVEIKRTVAAPSVFIFPPSDEQLKSGTASVVCLLNNFYPREAKVQWKVDNALQSGNSQESVTEQDSKDSTYSLSSTLTLSKADYEKHKVYACEVTHQGLSSPVTKSFNRGEC
Turning to B9, the “TNFα Neutralization Assay EC50” value in assay [1] worked out at 0.139 nM.

B10: AB213 (antibody, V domains shown)
VH: QVQLKESGPGLVAPSQSLSITCTVSGFSLTDYGVNWVRQPPGKGLEWLGMIWGDGSTDYDSTLKSRLSISKDNSKSQIFLKMNSLQTDDTARYYCAREWHHGPVAYWGQGTLVTVSA
VL: DIVMTQSHKFMSTTVGDRVSITCKASQAVSSAVAWYQQKPGQSPKLLIYWASTRHTGVPDRFTGSGSVTDFTLTIHNLQAEDLALYYCQQHYSTPFTFGSGTKLEIKR
notes: Parent antibody
With B10, in assay [3], the Kd is 0.0335 nM, the koff worked out at 0.000108 s⁻¹ and the kon came to 3.23e+06 M⁻¹ s⁻¹. Further, the “TNFα Neutralization Assay EC50” value in assay [1] was 0.124 nM.

B11: DVD1518 (bispecific antibody, human IgG1, kappa)
heavy: not shown
light: DVQMIQSPSSLSASLGDIVTMTCQASQGTSINLNWFQQKPGKAPKLLIYGSSNLEDGVPSRFSGSRYGTDFTLTISSLEDEDLATYFCLQHSYLPYTFGGGTKLEIKRTVAAPDIQMTQSPSSLSASVGDRVTITCRASQGIRIDLGWYQQKPGKAPKRLIYAASTLQSGVPSRFSGSGSGTEFIFTISSLQPEDFASYYCLQHKSYPLTFGGGTKVEIKRTVAAPSVFIFPPSDEQLKSGTASVVCLLNNFYPREAKVQWKVDNALQSGNSQESVTEQDSKDSTYSLSSTLTLSKADYEKHKVYACEVTHQGLSSPVTKSFNRGEC
For B11, the “TNFα Neutralization Assay EC50” value in assay [1] stood at 0.89 nM.

B12: DVD1507 (bispecific antibody, human IgG1, kappa)
heavy: not shown
light: DIVMTQSHKFMSTTVGDRVSITCKASQAVSSAVAWYQQKPGQSPKLLIYWASTRHTGVPDRFTGSGSVTDFTLTIHNLQAEDLALYYCQQHYSTPFTFGSGTKLEIKRTVAAPDVVMTQTPLSLPVSLGDQASISCTSGQSLVHINGNTYLHWYLQKPGQSPKLLIYKVSNLFSGVPDRFSGSGSGTDFTLKISRVEAEDLGVYFCSQSTHFPFTFGTGTKLEIKRTVAAPSVFIFPPSDEQLKSGTASVVCLLNNFYPREAKVQWKVDNALQSGNSQESVTEQDSKDSTYSLSSTLTLSKADYEKHKVYACEVTHQGLSSPVTKSFNRGEC
Consider B12, for which the “TNFα Neutralization Assay EC50” value in assay [1] amounted to 0.133 nM.
